Experiments:
EPHB1 = EPHB1 (UniProt P54762); assay: phosphorylation enrichment, bacterial display (enrichment ratio); higher = better substrate or ligand; peptides without Tyr show the background
Fes = Fes (UniProt P07332); assay: as above
c-Src = assay: as above
FGFR3 = FGFR3 (UniProt P22607); assay: as above
Fer (mouse) = assay: as above
Jak2 = Jak2 (UniProt O60674); assay: as above
Fyn = Fyn (UniProt P06241); assay: as above
MERTK = MERTK (UniProt Q12866); assay: as above
FGFR1 = FGFR1 (UniProt P11362); assay: as above
c-Abl (mouse) = assay: as above
EPHB2 = EPHB2 (UniProt P29323); assay: as above
AncSZ = assay: as above
Hck = Hck (UniProt P08631); assay: as above
Grb2 SH2 = Grb2 SH2 (UniProt P62993); assay: SH2 binding enrichment of the phosphorylated peptide, bacterial display (enrichment ratio); higher = better substrate or ligand; peptides without Tyr show the background
c-Src SH2 = assay: as above
SHP2-C SH2 = assay: as above
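Wherever SH2 binding enrichment of the phosphorylated peptide, bacterial display is given: peptide library displayed on the E. coli surface as eCPX fusions, selected cells deep-sequenced, score is each peptide's frequency after selection divided by its frequency in the input.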
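Wherever phosphorylation enrichment, bacterial display is given: 11-residue human phosphosite peptides and single-mutation variants displayed on the E. coli surface, counted by deep sequencing, each peptide's frequency after selection divided by its frequency in the unselected input library; frequency after pTyr selection over input frequency; kinase dosed for 20-30% of maximal phosphorylation in three min.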

FGFR3, sequence (P22607 whole entry, looked up): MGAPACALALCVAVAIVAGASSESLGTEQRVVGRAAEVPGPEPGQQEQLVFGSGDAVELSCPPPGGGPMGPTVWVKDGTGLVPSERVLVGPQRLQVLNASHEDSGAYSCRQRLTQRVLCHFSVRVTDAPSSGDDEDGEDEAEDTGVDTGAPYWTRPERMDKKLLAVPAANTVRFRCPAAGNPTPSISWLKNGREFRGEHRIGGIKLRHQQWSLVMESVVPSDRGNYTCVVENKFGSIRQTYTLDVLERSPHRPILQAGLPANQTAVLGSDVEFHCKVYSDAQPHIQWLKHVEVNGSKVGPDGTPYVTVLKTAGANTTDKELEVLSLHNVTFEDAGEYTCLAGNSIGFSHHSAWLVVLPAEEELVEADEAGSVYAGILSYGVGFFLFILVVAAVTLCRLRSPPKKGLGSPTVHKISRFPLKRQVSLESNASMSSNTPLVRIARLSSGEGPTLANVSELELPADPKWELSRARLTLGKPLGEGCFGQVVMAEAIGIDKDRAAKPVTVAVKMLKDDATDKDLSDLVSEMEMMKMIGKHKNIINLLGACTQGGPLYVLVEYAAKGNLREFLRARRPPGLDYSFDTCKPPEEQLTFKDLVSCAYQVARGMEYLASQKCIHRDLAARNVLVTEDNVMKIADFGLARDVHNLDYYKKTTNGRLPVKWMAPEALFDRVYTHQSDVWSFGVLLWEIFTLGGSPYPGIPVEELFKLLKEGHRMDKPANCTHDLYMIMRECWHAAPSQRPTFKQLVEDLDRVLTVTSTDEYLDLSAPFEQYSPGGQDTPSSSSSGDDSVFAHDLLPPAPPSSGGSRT
Fyn, sequence (P06241 whole entry, looked up): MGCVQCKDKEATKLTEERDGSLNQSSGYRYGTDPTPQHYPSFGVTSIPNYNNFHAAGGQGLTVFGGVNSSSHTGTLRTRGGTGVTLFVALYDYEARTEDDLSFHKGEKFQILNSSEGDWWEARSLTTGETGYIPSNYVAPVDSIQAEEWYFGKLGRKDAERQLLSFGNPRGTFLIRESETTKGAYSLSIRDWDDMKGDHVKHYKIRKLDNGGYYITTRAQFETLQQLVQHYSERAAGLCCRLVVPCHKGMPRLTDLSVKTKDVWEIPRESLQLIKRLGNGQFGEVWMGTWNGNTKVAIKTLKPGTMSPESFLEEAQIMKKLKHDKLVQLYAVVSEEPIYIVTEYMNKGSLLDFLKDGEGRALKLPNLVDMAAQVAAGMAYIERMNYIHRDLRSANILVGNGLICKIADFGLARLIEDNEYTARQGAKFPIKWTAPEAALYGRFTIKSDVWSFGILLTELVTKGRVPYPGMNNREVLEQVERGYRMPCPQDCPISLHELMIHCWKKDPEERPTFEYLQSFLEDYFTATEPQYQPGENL
Hck, sequence (P08631 whole entry, looked up): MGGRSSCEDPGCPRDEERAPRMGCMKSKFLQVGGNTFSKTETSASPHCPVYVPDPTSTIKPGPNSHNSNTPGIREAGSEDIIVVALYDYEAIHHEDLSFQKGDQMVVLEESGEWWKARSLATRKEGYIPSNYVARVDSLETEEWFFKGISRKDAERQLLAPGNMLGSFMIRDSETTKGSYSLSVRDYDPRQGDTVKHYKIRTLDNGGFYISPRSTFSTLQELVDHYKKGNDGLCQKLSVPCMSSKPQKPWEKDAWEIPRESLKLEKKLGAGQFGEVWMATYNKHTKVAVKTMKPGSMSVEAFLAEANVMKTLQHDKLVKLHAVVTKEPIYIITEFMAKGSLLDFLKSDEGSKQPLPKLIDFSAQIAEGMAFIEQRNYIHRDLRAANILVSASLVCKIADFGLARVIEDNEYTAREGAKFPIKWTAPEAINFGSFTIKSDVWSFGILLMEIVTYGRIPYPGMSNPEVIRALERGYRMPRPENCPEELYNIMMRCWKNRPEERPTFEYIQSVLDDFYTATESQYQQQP
MERTK, sequence (Q12866 whole entry, looked up): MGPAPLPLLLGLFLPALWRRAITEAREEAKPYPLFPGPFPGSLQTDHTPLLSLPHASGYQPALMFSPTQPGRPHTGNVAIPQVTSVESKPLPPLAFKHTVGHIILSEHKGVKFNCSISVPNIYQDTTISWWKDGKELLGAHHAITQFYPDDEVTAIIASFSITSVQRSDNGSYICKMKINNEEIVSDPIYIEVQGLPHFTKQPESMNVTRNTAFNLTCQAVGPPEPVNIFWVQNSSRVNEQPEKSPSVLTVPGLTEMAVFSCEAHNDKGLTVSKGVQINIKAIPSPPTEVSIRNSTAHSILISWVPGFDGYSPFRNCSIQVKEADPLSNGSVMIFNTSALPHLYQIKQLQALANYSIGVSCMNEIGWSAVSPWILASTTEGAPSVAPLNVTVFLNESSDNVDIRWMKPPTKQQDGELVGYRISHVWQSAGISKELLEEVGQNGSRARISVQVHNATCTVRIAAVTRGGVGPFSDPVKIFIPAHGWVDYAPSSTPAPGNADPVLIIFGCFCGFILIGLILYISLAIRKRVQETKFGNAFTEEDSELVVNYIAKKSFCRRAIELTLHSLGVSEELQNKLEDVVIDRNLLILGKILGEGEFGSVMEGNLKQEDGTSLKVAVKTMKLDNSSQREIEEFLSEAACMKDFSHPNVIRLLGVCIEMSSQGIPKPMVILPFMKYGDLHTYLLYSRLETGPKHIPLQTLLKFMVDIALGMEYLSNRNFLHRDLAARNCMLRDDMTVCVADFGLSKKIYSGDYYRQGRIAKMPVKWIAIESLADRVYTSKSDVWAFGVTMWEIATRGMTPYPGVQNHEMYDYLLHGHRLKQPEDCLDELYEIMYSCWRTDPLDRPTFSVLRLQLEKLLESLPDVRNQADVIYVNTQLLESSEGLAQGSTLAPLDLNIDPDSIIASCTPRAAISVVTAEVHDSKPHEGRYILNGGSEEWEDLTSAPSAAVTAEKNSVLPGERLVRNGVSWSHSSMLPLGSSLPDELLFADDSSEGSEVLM
Jak2, sequence (O60674 whole entry, looked up): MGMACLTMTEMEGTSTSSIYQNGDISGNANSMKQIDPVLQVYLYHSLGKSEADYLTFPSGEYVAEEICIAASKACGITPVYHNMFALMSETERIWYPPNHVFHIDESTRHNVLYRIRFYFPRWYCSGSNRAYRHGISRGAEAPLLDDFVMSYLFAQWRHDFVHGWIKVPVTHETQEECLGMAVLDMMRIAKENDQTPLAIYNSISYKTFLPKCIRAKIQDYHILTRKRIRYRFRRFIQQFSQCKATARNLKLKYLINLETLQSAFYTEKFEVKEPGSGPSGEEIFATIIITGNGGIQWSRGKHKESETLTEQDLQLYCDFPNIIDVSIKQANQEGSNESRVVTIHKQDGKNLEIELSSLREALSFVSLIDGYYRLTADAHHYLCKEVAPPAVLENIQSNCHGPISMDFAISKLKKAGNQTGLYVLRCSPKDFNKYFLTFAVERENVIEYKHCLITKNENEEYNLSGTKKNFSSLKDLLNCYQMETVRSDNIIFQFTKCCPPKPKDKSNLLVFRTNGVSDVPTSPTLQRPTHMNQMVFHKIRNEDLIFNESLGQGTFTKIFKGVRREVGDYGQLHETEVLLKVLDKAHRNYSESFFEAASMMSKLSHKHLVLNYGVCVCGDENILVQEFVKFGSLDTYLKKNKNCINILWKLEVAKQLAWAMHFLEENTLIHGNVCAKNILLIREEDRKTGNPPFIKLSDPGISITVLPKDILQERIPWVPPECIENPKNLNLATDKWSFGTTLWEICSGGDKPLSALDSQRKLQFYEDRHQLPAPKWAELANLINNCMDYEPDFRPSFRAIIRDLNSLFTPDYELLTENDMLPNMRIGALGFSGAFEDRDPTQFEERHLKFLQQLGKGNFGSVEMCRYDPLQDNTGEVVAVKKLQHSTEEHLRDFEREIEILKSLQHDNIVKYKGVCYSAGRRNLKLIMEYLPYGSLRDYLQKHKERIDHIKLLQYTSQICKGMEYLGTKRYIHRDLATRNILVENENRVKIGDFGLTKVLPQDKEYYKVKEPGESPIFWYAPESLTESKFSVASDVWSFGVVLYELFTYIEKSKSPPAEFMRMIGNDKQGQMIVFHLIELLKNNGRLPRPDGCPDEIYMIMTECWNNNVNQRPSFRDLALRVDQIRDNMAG
FGFR1, sequence (P11362 whole entry, looked up): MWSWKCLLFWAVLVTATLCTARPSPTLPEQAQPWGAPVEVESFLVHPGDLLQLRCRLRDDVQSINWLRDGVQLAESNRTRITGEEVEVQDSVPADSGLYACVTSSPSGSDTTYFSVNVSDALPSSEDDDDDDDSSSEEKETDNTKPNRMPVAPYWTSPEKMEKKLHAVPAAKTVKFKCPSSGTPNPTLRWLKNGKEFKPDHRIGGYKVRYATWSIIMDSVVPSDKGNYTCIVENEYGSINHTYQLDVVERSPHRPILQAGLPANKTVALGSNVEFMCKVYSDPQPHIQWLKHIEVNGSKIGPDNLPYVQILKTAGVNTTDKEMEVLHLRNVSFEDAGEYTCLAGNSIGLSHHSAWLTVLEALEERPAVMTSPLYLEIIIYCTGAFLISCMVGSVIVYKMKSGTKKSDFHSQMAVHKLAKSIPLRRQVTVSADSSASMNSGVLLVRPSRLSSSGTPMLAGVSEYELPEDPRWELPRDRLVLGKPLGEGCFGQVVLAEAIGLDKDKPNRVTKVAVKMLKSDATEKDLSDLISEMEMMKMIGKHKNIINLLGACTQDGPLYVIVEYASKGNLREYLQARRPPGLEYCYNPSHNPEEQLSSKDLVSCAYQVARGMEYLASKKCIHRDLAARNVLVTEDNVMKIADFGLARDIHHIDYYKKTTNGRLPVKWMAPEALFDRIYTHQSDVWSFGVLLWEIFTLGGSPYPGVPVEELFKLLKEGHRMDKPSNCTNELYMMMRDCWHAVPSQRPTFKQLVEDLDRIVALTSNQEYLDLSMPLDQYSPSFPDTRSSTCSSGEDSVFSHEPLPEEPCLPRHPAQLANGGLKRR

Sequence	SH2 binding enrichment (Grb2 SH2)	SH2 binding enrichment (c-Src SH2)	SH2 binding enrichment (SHP2-C SH2)	phosphorylation enrichment (EPHB1)	phosphorylation enrichment (Fes)	phosphorylation enrichment (c-Src)	phosphorylation enrichment (FGFR3)	phosphorylation enrichment (Fer (mouse))	phosphorylation enrichment (Jak2)	phosphorylation enrichment (Fyn)	phosphorylation enrichment (MERTK)	phosphorylation enrichment (FGFR1)	phosphorylation enrichment (c-Abl (mouse))	phosphorylation enrichment (EPHB2)	phosphorylation enrichment (AncSZ)	phosphorylation enrichment (Hck)
ATDLAYFLVRK [ASL_Y375_YF]	2.04	1.18	1.84	0.73	1.6	0.728	1.32	0.509	2.72	0.725	0.642	1.26	1.2	0.872	1.73	0.686
ATGGFYSFGGG [KRT24_Y120_YF]	0.749	0.425	0.569	0.7	0.953	1.83	0.502	2.46	0.706	3.93	7.38	0.481	0.562	0.499	0.678	1.83
AVLSLCASGRT [ACTA2_Y145_Y145C]	0.807	0.488	0.857	0.58	0.955	0.357	0.592	0.545	0.959	0.366	0.402	0.505	0.606	0.639	0.898	0.448
CEAVEYLESKQ [BTK_Y511_M509V]	0.929	0.539	0.643	0.546	1.41	0.52	0.875	0.564	1.32	0.443	0.384	0.534	0.738	0.802	1.3	0.613
CFSSEYHFVGG [CTSC_Y345_Y340C_YF]	0.944	0.652	0.694	1.87	1.11	1.85	7.23	0.753	1.61	0.992	2.02	10.4	1.19	1.96	2.64	1.35
CGTPTYLAPEV [CHEK2_Y390]	0.878	0.582	0.785	1.18	1.34	0.639	1.04	0.564	1.9	0.627	0.816	1.12	7.74	1.39	2.38	0.776
CLAKMYFSAVD [CP_Y539_YF]	0.895	0.606	0.608	0.662	1.26	0.563	0.765	0.506	1.06	0.519	0.414	0.519	1.03	0.592	1.04	0.527
CLRIDYERVSQ [DSP_Y1542_R1537C]	0.816	0.567	0.599	1.48	1.57	0.517	1.04	0.674	1.38	0.524	0.475	0.574	0.96	1.03	1.23	0.631
CRVEPYGENFN [APOA4_Y310_R305C]	0.703	0.675	0.712	0.675	1.57	0.616	0.869	0.649	1.28	0.441	0.583	0.603	1.1	0.651	1.28	0.608
CSRRFYQLTKL [AR_Y858]	0.663	0.406	0.488	0.407	0.718	0.527	0.528	0.468	0.698	0.462	0.448	0.455	0.508	0.548	0.79	0.507
CSRRLYQLTKL [AR_Y858_F857L]	0.641	0.524	0.449	0.451	0.769	0.657	0.456	0.499	0.794	0.621	0.558	0.517	0.728	0.59	0.666	0.858
CTLSVYRQLHN [LUZP1_Y1036]	0.655	0.464	0.608	0.622	1.29	0.412	0.823	0.536	1.07	0.466	0.435	0.513	0.771	0.631	1.1	0.456
DCAAIYGNEPD [AKR1A1_Y50_E55D]	1.11	0.982	0.813	0.668	1.64	1.65	0.957	0.672	1.25	1.02	0.585	0.638	0.978	0.726	1.35	1.09
DDSSAYCSVDE [BCKDHA_Y345_R346C]	1	1.21	0.727	0.621	1	0.535	0.692	0.521	0.978	0.55	0.505	0.544	0.712	0.505	1.32	0.58
DGMADCSDPSY [CDC5L_Y459_Y459C]	1.22	0.615	0.629	0.607	1.18	0.425	0.754	0.52	1.06	0.492	0.412	0.465	0.755	0.595	1.12	0.543

Second part, led by results:

SH2 binding enrichment (Grb2 SH2)	SH2 binding enrichment (c-Src SH2)	SH2 binding enrichment (SHP2-C SH2)	Sequence	phosphorylation enrichment (EPHB1)	phosphorylation enrichment (Fes)	phosphorylation enrichment (c-Src)	phosphorylation enrichment (FGFR3)	phosphorylation enrichment (Fer (mouse))	phosphorylation enrichment (Jak2)	phosphorylation enrichment (Fyn)	phosphorylation enrichment (MERTK)	phosphorylation enrichment (FGFR1)	phosphorylation enrichment (c-Abl (mouse))	phosphorylation enrichment (EPHB2)	phosphorylation enrichment (AncSZ)	phosphorylation enrichment (Hck)
0.677	0.497	0.752	ATKNDYWAMLA [WWOX_Y287_P282A]	1.72	1	0.418	3.97	0.452	1.02	0.384	0.499	6.01	0.881	1.15	1.17	0.453
0.744	0.406	0.654	CDIPRYIVSQL [MAST2_Y461]	0.535	1.02	0.442	0.618	0.454	1.04	0.506	0.501	0.497	0.816	0.577	1.04	0.482
0.767	0.52	0.735	CGTPEYRAPEI [PRKACA_Y205_L206R]	0.687	1.35	0.432	0.825	0.582	0.984	0.517	0.467	0.603	3.88	0.605	1.17	0.549
1.02	8.28	4.49	CPTIHYNYMCN [TP53_Y234_T230P]	0.603	0.999	0.462	0.586	0.621	0.776	0.594	0.462	0.54	0.634	0.607	0.843	0.429
1.33	2.01	1.73	CTAIHYNFMCN [TP53_Y234_T231A_YF]	0.622	0.909	0.525	0.614	0.461	0.863	0.442	0.38	0.598	0.735	0.526	0.814	0.597
0.983	8.99	1.48	CTTIHYDYMCN [TP53_Y234_N235D]	0.644	0.994	0.675	0.631	1.17	1.03	0.657	0.591	0.687	0.708	0.723	1.31	0.635
1.19	0.858	1.1	CTTIHYIFMCN [TP53_Y234_N235I_YF]	0.511	1.05	0.324	0.657	0.436	0.918	0.418	0.327	0.416	0.695	0.554	0.946	0.331
2	2.34	2.05	CTTIHYNFICN [TP53_Y234_M237I_YF]	0.554	1.23	0.595	0.775	0.672	1.25	0.464	0.439	0.554	0.787	0.59	0.895	0.454
0.949	0.773	0.896	CTTIHYNFMRN [TP53_Y234_C238R_YF]	0.605	1.07	0.449	0.993	0.571	0.889	0.568	0.489	0.567	0.767	0.626	1.03	0.577
0.934	1.65	0.873	CTTIHYNYMSN [TP53_Y234_C238S]	0.503	0.844	0.399	0.629	0.664	0.756	0.396	0.502	0.499	0.501	0.594	0.793	0.434
1.5	1.36	1.39	CTTIHYNYRCN [TP53_Y234_M237R]	0.594	1.03	0.522	0.713	0.455	0.832	0.498	0.465	0.502	0.726	0.54	0.797	0.497
0.688	0.458	0.844	DAASNYARGHF [TUBA3E_Y103_YF]	0.502	0.584	0.394	0.526	0.403	0.604	0.398	0.465	0.41	0.537	0.514	0.503	0.47
0.654	0.71	0.613	DAMQTYNGNDE [TSPAN7_Y131]	0.637	1.11	0.685	0.837	0.531	1.03	0.55	0.585	0.508	0.653	0.576	1.01	0.494
0.752	0.544	0.605	DDLEVYLKHLL [SACS_Y3477]	0.505	0.97	0.558	0.697	0.653	0.822	0.482	0.409	0.479	0.61	0.503	1.03	0.58
0.866	0.598	0.833	DDPRTYQKYGY [OAS1_Y362_R361T]	0.458	0.76	0.549	0.555	0.41	0.635	0.43	0.421	0.446	0.572	0.611	0.74	0.492
1.01	0.61	0.694	DEEPPDRGPFC [SASH1_Y551_Y551D]	0.549	1.14	0.513	0.679	0.665	0.952	0.532	0.465	0.574	0.798	0.596	1.15	0.496
0.904	0.56	0.639	DFFDLYGGEKF [PTPN11_Y66_YF]	0.569	1	2.79	0.629	0.682	1.06	2.12	0.441	0.523	0.967	0.525	0.912	3.08
0.94	0.517	1.27	DKATEYIQYVR [MAX_Y70_M74V]	0.519	0.976	0.493	0.507	0.43	0.763	0.535	0.425	0.506	0.582	0.582	0.983	0.552
